Usually IC50 stands for the concentration at which inhibition is half-maximal. Higher therefore signals a need for much substance.

The target in assay [1] is LAG-3-huIgG1 Fc fusion protein. Put plainly: competition binding assay, LAG-3-Ig on Raji cells.
In assay [2] the target is LAG-3 expressed on cells (species not stated at the experiment) (human) (UniProt P18627).

B1: murine anti-LAG-3 mAb BAP050 (antibody, V domains shown)
VH: QIQLVQSGPELKKPGETVKISCKASGFTLTNYGMNWVRQTPGKGLKWMGWINTDTGEPTYADDFKGRFAFSLETSASTASLQINNLKNADTATYFCARNPPYYYGTNNAEAMDYWGQGTAVTVSS
VL: DIQMTQTTSSLSASLGDRVTISCSSSQDISNYLNWYQQKPDGTVKVLIYYTSTLHLGVPSRFSGSGSGTDYSLTISNLELEDIATYYCQQYYNLPWTFGGGTKLEIK
In turn, B1 showed a concentration for half-maximal inhibition (IC50) in assay [1] of 2.3 nM. In assay [2], this molecule showed an IFN-γ expression, cells stimulated with CMV peptides (fold increase) of 1.4; an IFN-γ expression, cells stimulated with Staphylococcal enterotoxin B (SEB) (3 µg/mL) (fold increase) of 1.6; an IFN-γ expression, cells stimulated with anti-CD3 (0.1 µg/mL) (fold increase) of 3.
